Experimental data: publication PMC8578495
Where two headings read alike, the source gives them in different places.

Substance	expression_or_secretion (ubiquitination at K848)	expression_or_secretion (ubiquitination at K86)	expression_or_secretion (ubiquitination at K827)
Mps1: K848R	increases	–	–
Mps1: K86R	–	increases	–
Mps1: K827R	–	–	increases
Mps1: RRR (K86R, K827R, K848R)	increases	increases	increases
